In publication PMC12136796:
One block for each substance: values may come before it.

Columns and labels:
Assay in all cases: co-IP
[1] = biological target: mGFP-PICK1 5K-E (mouse) (UniProt Q62083)
[2] = biological target: mGFP-KIBRA ΔC2 (mouse) (UniProt Q5SXA9)
[3] = biological target: mCherry-PICK1 WT (mouse) (UniProt Q62083)
[4] = biological target: mGFP-KIBRA ΔCCL (mouse) (UniProt Q5SXA9)
[5] = biological target: mGFP-KIBRA ΔαBR (mouse) (UniProt Q5SXA9)
[6] = biological target: mCherry-KIBRA WT (mouse) (UniProt Q5SXA9)
Sequence of mCherry-KIBRA WT (mouse) (Q5SXA9 whole entry): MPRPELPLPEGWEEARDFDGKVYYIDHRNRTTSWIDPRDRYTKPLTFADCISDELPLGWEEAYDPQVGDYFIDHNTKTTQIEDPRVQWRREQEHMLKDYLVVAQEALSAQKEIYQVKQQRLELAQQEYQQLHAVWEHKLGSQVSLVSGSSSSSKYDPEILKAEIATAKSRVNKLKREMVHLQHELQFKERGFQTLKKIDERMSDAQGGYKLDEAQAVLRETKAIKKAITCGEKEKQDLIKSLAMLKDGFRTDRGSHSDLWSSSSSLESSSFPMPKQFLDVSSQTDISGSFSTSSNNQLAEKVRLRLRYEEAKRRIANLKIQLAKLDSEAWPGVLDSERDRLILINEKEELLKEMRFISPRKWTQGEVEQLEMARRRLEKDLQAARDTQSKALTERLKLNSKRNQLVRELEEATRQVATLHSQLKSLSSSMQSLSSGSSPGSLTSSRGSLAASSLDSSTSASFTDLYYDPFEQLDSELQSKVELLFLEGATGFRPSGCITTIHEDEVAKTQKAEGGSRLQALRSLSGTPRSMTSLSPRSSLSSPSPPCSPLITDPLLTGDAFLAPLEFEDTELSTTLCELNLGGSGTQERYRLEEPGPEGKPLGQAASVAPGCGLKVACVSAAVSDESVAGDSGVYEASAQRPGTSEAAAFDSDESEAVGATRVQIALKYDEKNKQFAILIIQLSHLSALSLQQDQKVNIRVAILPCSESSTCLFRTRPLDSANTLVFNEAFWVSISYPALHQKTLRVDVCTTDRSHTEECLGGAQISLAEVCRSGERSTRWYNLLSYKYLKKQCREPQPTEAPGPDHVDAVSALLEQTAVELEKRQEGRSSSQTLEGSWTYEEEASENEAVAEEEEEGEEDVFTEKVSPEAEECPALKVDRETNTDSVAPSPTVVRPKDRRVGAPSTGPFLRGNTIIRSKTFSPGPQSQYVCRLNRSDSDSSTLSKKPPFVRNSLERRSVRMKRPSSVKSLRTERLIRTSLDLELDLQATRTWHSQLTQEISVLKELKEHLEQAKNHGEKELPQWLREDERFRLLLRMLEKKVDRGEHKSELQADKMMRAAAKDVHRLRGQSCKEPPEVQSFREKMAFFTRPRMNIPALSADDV

Sequence of mCherry-PICK1 WT (mouse) (Q62083 whole entry): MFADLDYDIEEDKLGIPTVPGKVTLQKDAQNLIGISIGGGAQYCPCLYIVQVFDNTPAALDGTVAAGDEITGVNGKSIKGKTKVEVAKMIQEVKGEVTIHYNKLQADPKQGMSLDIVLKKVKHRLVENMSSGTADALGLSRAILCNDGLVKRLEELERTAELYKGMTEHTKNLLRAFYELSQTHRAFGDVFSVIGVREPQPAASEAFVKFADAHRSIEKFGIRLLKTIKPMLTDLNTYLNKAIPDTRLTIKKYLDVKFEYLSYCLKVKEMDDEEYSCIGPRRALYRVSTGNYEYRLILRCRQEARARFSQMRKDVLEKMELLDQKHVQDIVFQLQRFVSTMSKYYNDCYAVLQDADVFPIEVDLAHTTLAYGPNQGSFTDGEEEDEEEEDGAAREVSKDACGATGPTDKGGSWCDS
Sequence of mGFP-KIBRA ΔC2 (Q5SXA9 whole entry, stated change not applied): as the sequence (Q5SXA9 whole entry) above
Sequence of mGFP-KIBRA ΔCCL (Q5SXA9 whole entry, stated change not applied): as the sequence (Q5SXA9 whole entry) above
Sequence of mGFP-KIBRA ΔαBR (Q5SXA9 whole entry, stated change not applied): as the sequence (Q5SXA9 whole entry) above
Sequence of mGFP-PICK1 5K-E (mouse) (Q62083 whole entry): as the sequence (Q62083 whole entry) above
Sequence of mCherry-KIBRA WT (Q5SXA9 whole entry): as the sequence (Q5SXA9 whole entry) above
Sequence of mGFP-KIBRA ΔWW (Q5SXA9 whole entry, stated change not applied): as the sequence (Q5SXA9 whole entry) above
Sequence of Myc-GluA2 (P19491 22-883): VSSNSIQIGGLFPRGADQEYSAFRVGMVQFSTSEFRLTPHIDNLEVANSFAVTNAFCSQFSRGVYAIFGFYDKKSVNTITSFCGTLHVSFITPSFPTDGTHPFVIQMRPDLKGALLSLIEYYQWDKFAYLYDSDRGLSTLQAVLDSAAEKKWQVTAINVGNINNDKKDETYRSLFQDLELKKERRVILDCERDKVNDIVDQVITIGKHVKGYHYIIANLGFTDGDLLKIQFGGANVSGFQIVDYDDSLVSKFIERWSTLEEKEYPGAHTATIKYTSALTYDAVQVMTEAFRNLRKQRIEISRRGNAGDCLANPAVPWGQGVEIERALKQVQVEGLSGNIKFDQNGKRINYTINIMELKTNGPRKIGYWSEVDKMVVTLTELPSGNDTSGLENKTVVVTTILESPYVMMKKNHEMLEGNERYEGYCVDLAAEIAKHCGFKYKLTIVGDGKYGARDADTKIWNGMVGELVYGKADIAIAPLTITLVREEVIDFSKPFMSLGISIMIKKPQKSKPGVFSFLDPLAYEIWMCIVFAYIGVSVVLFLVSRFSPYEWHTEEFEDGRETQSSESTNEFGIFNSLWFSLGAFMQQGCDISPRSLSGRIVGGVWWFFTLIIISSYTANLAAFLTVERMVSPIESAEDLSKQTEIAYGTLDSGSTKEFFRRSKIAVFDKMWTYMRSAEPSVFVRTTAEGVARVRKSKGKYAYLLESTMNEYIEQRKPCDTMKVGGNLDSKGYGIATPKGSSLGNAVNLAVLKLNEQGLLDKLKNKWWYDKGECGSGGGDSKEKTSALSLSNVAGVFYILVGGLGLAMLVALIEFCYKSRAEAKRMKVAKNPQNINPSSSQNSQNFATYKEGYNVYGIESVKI
Sequence of mGFP-PICK1 KD-AA (Q62083 whole entry): as the sequence (Q62083 whole entry) above
Sequence of mGFP-PICK1 BAR (domain or fragment) (Q62083 whole entry, the tested form may be a part): as the sequence (Q62083 whole entry) above

co-precipitated GluA2 relative to PICK1 WT (mCherry-KIBRA co-expressed) [1]: 0.27 fold of WT
Substance: Myc-GluA2 (from UniProt P19491 22-883) (receptor)

co-precipitated KIBRA relative to PICK1 WT [1]: 0.63 fold of WT
Substance: mCherry-KIBRA WT (from UniProt Q5SXA9 1-1104) (natural protein)

co-precipitated mGFP-KIBRA relative to KIBRA WT [2]: 1.36 fold of WT | co-precipitated KIBRA relative to KIBRA WT [3]: 1.29 fold of WT
Substance: mGFP-KIBRA ΔC2 (from UniProt Q5SXA9 1-1104) (natural protein)

co-precipitated mGFP-KIBRA relative to KIBRA WT [4]: 1.6 fold of WT | co-precipitated KIBRA relative to KIBRA WT [3]: 1.48 fold of WT
Substance: mGFP-KIBRA ΔCCL (from UniProt Q5SXA9 1-1104) (natural protein)

co-precipitated KIBRA relative to KIBRA WT [3]: 1.79 fold of WT
Substance: mGFP-KIBRA ΔWW (from UniProt Q5SXA9 1-1104) (natural protein)

co-precipitated mGFP-KIBRA relative to KIBRA WT [5]: 1.55 fold of WT | co-precipitated KIBRA relative to KIBRA WT [3]: 1.94 fold of WT
Substance: mGFP-KIBRA ΔαBR (from UniProt Q5SXA9 1-1104) (natural protein)

co-precipitated PICK1 relative to PICK1 WT [6]: 1.62 fold of WT
Substance: mGFP-PICK1 BAR (domain or fragment)

co-precipitated PICK1 relative to PICK1 WT [6]: 0.81 fold of WT
Substance: mGFP-PICK1 KD-AA (from UniProt Q62083 1-416) (natural protein)
